The term Kd denotes the free concentration of one partner at which half of the binding sites on the other are occupied at equilibrium, for simple one-to-one binding. Higher therefore signals weaker binding. A word on the koff: it is the first-order rate constant of dissociation. A lower koff goes with slow dissociation. One may read the kon as a measure of how fast the partners come together. A high value points to fast association.

The target in assay [1] is T1, 3×FLAG-IL-6 (human).
T1 construct: it may hold the pre-pro-trypsin leader
T1 sequence (chain, as listed by the source limits assumed): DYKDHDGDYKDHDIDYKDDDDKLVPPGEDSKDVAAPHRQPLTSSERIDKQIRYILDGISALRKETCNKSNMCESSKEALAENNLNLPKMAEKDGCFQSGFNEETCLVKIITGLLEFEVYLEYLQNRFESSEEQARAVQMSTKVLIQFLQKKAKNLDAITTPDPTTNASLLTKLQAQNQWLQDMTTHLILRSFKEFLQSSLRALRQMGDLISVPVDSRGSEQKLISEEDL
Nature of the assay: SPR, 3×FLAG-IL-6 captured by anti-FLAG M2 on protein G, scFv as analyte (1-100 nM). On the procedure:
Equilibrium constants for scFvs were determined as previously described; however, the protocol was modified so that an epitope tagged IL-6 was captured on the chip surface and the dissociation of anti-IL-6 scFvs from IL-6 was monitored. Briefly, anti-FLAG® M2 antibody (200472, Agilent Technologies, Santa Clara, Calif.) was bound to Protein G, and then 3×FLAG-IL-6 was captured by the anti-FLAG antibody. The anti-IL-6 scFvs were assayed over a range of concentrations between 1 and 100 nM.
Anti IL-6 scFvs, humanized using the one step method, retained IL-6 neutralization activity when expressed in mammalian cells, as shown for 13A8 (FIG. 11A and FIG. 11B), 28D2 and 9C8 v3-1 (FIG. 11C).
On the technique in general: Surface plasmon resonance follows binding to a sensor surface in real time, without labels.

The target of assay [2] is T1, 3×FLAG-IL-6. The description is as above. The source holds these as a separate data set.
Assay [3] deals with T2, human IL-6 (human, UniProt P05231 30-212). Nature of the assay: cell-based or functional assay.
Assay [4] has as its target T2, human IL-6. Nature of the assay: SPR (SensiQ Pioneer), mAb captured on protein G, IL-6 as analyte (3×FLAG-IL-6 or IL-6 CYT-213, 1-100 nM), 25 C, 1:1 model. Here is the method: Equilibrium constants for rabbit human chimeric mAbs were determined by binding the mAb to the protein G coated chip followed by binding of each analyte (IL-6 or IL-23) to its respective mAb. In order to minimize mass transfer effects, the surface densities of the mAbs for each analyte were adjusted so that as analyte binding approached saturation its corresponding RU fell between 200 and 300. […] For each binding and dissociation cycle the chip surface was regenerated with 15 uL of 20 mM NaOH (5671-02, Mallinckrodt Baker, Philliphsburg, N.J.). The assay temperature was maintained at 25° C. with an analyte flow rate of 50 μL/min and included a 2 minute association phase and 10-30 minute dissociation phase. The on/off rates (kₐ/kd) and dissociation constants (KD) were determined using the format described above along with pseudo-first-order 1:1 interaction model software (Qdat, ICx Nomadics, Stillwater, Okla.).

The target of assay [5] is T2, human IL-6. The assay is described as follows: cell-based or functional assay. This is another data set of the same source.
Assay [6] deals with T3, human dimeric IL-23 (eBiosciences 34-8239) (human, UniProt P29460 23-328; Q9NPF7 20-189).
T3 sequence (looked up) 1: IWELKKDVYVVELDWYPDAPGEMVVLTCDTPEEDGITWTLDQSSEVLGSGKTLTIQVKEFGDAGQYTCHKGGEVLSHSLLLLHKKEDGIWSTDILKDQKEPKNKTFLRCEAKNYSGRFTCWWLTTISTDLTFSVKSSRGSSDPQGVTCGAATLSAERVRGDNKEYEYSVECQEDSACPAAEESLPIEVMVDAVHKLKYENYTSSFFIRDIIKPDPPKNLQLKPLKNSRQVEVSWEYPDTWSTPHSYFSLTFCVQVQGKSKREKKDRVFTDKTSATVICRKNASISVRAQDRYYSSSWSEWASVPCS
T3 sequence (looked up) 2: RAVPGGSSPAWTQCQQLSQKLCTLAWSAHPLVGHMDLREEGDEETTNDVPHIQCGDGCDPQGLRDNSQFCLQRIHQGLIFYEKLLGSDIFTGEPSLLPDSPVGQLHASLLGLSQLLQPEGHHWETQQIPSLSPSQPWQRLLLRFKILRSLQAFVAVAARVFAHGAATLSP
The assay is described as follows: cell-based or functional assay.

Residue numbers refer to the chain shown, from its start. Read-outs that look alike come from different tables or passages of the source.

B1: 28D2 humanized scFv (mammalian expressed) (scFv)
scFv: DIQLTQSPSFLSASVGDRVTITCQASEDLFSSLAWYQQKPGKAPKLLIYSASTLASGVPSRFSGSGSGTDFTLTISSLQPEDFATYYCLGLYYYLTPDPIYGFGGGTKVEIKGGGGSGGGGSGGGGSGGGGSEVQLVESGGGLVQPGGSLRLSCTVSGLSLSKNAIAWVRQAPGKGLEWVGIIYAGGATTYASWAKGRFTISRDNSKNTLYLQMNSLRAEDTAVYYCAREYAGDSYYTGYTQLDLWGQGTLVTVSSGPPPPHHHHHH
notes: also called 28D2 scFv
For B1, in the assay with 3×FLAG-IL-6 [1], the Kd amounted to 0.109 nM, the koff turned out to be 0.0001 s⁻¹ and the kon was 918000 M⁻¹ s⁻¹. In the assay with 3×FLAG-IL-6 [2], this molecule came in with an equilibrium dissociation constant (Kd) of 0.109 nM, a koff of 0.0001 s⁻¹ and a kon of 918000 M⁻¹ s⁻¹. Moreover, the “EC50, inhibition of IL-6 induced B9 cell proliferation” value (“EC50, inhibition” below) in the assay with human IL-6 [3] was found to be 0.043 ng/mL.

B2: 9C8 chimeric mAb (antibody, V domains shown)
VH: QSVEESGGRLVTPGTPLTLTCTVSGIDLSSYDMSWVRQAPGKGLEWIGYIYTDSSTYYANWAKGRFTISKTSTTVDLKMTSLTTEDTATYFCAKGSTDYAFDTRLDLWGPGTLVTVS
VL: AYDMTQTPASVEVAMGGTVTIKCQASQSISNELSWYQQKPGQPPKLLIYRTSTLASGVSSRFKGSGSGTEYTLTISGVECADAATYYCQQGYNSNDVDNVFGGGTKVVVVR
notes: Rabbit/human chimeric IgG (human IgG1, kappa); HEK293; also called 9C8 clone
As to B2, in the assay with human IL-6 [4], binding was characterised by a dissociation constant (Kd) of 0.042 nM, the koff came out at 3.17e-05 s⁻¹ and the kon stood at 765000 M⁻¹ s⁻¹. For the same molecule, the “EC50, inhibition” value with human IL-6 [3] was determined as 0.4 ng/mL.

B3: 8C8 rabbit scFv (scFv, V domains shown)
VH: QSVEESGGRLVAPGGSLTLTCKASGFSLSSSGVSWVRQAPGKGLEWIGYVSIADTISYANWAKGRFTISKTSSTTVDLEMTSLTTEDTATYFCVRGFITYSGVLWGPGTLVTVSS
VL: QVLTQTPASVSAAVGGTVTISCQSSQNVYSNAFLSWYQQKPGQPPKLLIYKASKLASGVPSRFSGSGSGTQFTLTISGVQCDDAATYYCAGEYEGGIGTFGGGTEVVVVR
Regarding B3, in the assay with human IL-6 [5], the “EC50, inhibition” value worked out at 0.51 ng/mL.

B4: 13A8n-PEG20-31A12c bispecific (bispecific antibody)
scFv 1: DIQLTQSPSFLSASVGDRVTITCQASQSISNELSWYQQKPGKAPKLLIYRASTLTSGVPSRFSGSGSGTEFTLTISSLQPEDFATYYCQQGYNSNDVDNVFGGGTKVEIKGGGGSGGGGSGGGGSGGGGSEVQLVESGGGLVQPGGSLRLSCTVSGIDLSSYDLSWVRQAPGKGLEWVGYIYTDSSTWYANWAKGRFTISRDNSKNTLYLQLNSLRAEDTAVYYCARGSTDYAFDTRLDLWGQGTLVTVSS
scFv 2: DIQLTQSPSFLSASVGDRVTITCQASEDIESYLAWYQQKPGKAPKLLIYSASTLTSGVPSRFSGSGSGTEFTLTISSLQPEDFATYYCLGADDTTTVFGGGTKVEIKGGGGSGGGGSGGGGSGGGGSEVQLVESGGGLVQPGGSLRLSCTASGFSLSSYWLTWVRQAPGKGLEWVGTIATSSTYYASWAKGRFTISRDNSKNTLYLQLNSLRAEDTAVYYCARGLTTDYDLDLWGQGTLVTVSS
modifications: C-terminal azidohomoalanine (Aha) joined through a linear 20 kDa PEG to the Aha of the other scFv; N-terminal azidohomoalanine (Aha) joined through a linear 20 kDa PEG to the Aha of the other scFv
As to B4, in the assay with human IL-6 [5], the “EC50, neutralization of IL-6, first batch” value is 1.67 ng/mL and the “EC50, neutralization of IL-6, second batch” value was determined as 1.69 ng/mL. Besides, in assay [6], the “EC50, neutralization of IL-23, first batch” value was determined as 4.96 ng/mL and the “EC50, neutralization of IL-23, second batch” value worked out at 3.25 ng/mL.

B5: 13A8c-40KPEG-31A12c bispecific (bispecific antibody)
scFv 1: B4 scFv 1
scFv 2: B4 scFv 2
modifications: C-terminal azidohomoalanine (Aha) joined through a linear 40 kDa PEG to the Aha of the other scFv
For B5, in the assay with human IL-6 [5], the “EC50, B9 cell line bioassay” value stood at 0.138 ng/mL. For the same molecule, the “EC50, mouse splenocyte assay” value in assay [6] turned out to be 2.7 ng/mL.

B6: 13A8n-PEG-45G5c bispecific (bispecific antibody)
scFv 1: B4 scFv 1
scFv 2: MADIQLTQSPSFLSASVGDRVTITCQSSQSIYNNNLLSWYQQKPGKAPKLLIYFASTLASGVPSRFSGSGSGTEFTLTISSLQPEDFATYYCLGGYDDDADTAFGGGTKVEIKGGGGSGGGGSGGGGSGGGGSEVQLVESGGGLVQPGGSLRLSCTVSGFSLSVYAINWVRQAPGKGLEWVGIINDVDDTAYSAWAKGRFTISRDNSKNTLYLQLNSLRAEDTAVYYCARGYLSYAYAGDAFDPWGQGTLVTVSSGM
modifications: C-terminal azidohomoalanine (Aha) joined through a 20 kDa PEG to the Aha of the other scFv; N-terminal azidohomoalanine (Aha) joined through a 20 kDa PEG to the Aha of the other scFv
With B6, the “EC50, B9 cell line bioassay” value with human IL-6 [5] turned out to be 0.933 ng/mL. The “EC50, mouse splenocyte assay” value in assay [6] worked out at 5.66 ng/mL.

B7: 13A8c-PEG-22H8c bispecific (bispecific antibody)
scFv 1: B4 scFv 1
scFv 2: DIQLTQSPSFLSASVGDRVTITCQSSQTVYKNNLLSWYQQKPGKAPKLLIYLASTLASGVPSRFSGSGSGTEFTLTISSLQPEDFATYYCLGGYDDDADTAFGGGTKVEIKGGGGSGGGGSGGGGSGGGGSEVQLVESGGGLVQPGGSLRLSCTVSGFSLSTYTLNWVRQAPGKGLEWVGAISYDGGTAYANWAKGRFTISRDNSKNTLYLQLNSLRAEDTAVYYCARGFYVYAYIGDAFDPWGQGTLVTVSS
modifications: C-terminal azidohomoalanine (Aha) joined through a 20 kDa PEG to the Aha of the other scFv
For the molecule B7, the “EC50, B9 cell line bioassay” value in the assay with human IL-6 [5] was determined as 0.246 ng/mL. For the same molecule, the “EC50, mouse splenocyte assay” value in assay [6] was determined as 0.234 ng/mL.

B8: 28D2 chimeric mAb (antibody, V domains shown)
VH: QSLGESGGRLVTPGTPLTLTCTVSGLSLSKNAIAWVRQAPGKGLEWIGIIYAGGATTYASWAKGRFTISKSSTTVDLKITSPTTVDTATYFCAREYAGDSYYTGYTQLDLWGPGTLVTVSS
VL: ALVMTQTPASVSAAVGGTVTINCQASEDLFSSLAWFQQKPGQPPKLLIYSASTLASGVPSRFSGSGSGTEFTLTISDLECADAATYYCLGLYYYLTPDPIYGFGGGTKVVVV
As to B8, the “EC50, inhibition” value in the assay with human IL-6 [3] turned out to be 0.065 ng/mL.

B9: 28D2 N-Aha (scFv)
scFv: MEDIQLTQSPSFLSASVGDRVTITCQASEDLFSSLAWYQQKPGKAPKLLIYSASTLASGVPSRFSGSGSGTDFTLTISSLQPEDFATYYCLGLYYYLTPDPIYGFGGGTKVEIKGGGGSGGGGSGGGGSGGGGSEVQLVESGGGLVQPGGSLRLSCTVSGLSLSKNAIAWVRQAPGKGLEWVGIIYAGGATTYASWAKGRFTISRDNSKNTLYLQLNSLRAEDTAVYYCAREYAGDSYYTGYTQLDLWGQGTLVTVSSGPPPPPHHHHHH
modifications: azidohomoalanine (Aha) in place of the single Met, at the N terminus
notes: also called E. coli 28D2 scFv with Aha at the N term
As to B9, in the assay with 3×FLAG-IL-6 [2], the affinity, expressed as Kd, was 0.062 nM; the koff was 8.99e-05 s⁻¹; the kon is 1.46e+06 M⁻¹ s⁻¹.

B10: 28D2-L Aha (scFv)
scFv: B9 scFv with E2A, G121M
modifications: azidohomoalanine (Aha) in place of a single Met in the Gly/Ser linker between VL and VH
notes: also called E. coli 28D2 scFv with Aha in the Gly/Ser linker
In the assay with 3×FLAG-IL-6 [2], B10 came in with a Kd of 0.053 nM, a koff of 6.88e-05 s⁻¹ and an on-rate constant (kon) of 1.3e+06 M⁻¹ s⁻¹.

B11: 14B5 chimeric mAb (antibody, V domains shown)
VH: QSVEESGGRLVTPGTPLTLTCAVSGFSLSDYTMIWVRQAPGEGLEWIGIISSSGNTYYATWVKGRFTISKTSTTVDLKMISPTTEDTATYFCARGSGAYISDYFNVWGPGTLVTVSS
VL: FELTQTPSSVEAAVEGTVTIKCQASQSIDSWLSWYQQKPGQPPKLLIYAASKLATGVPSRFSGSGSGTQFTLTIGDLECADAATYYCQSYYDVNAGYGFGGGTEVVVVR
With B11, the “EC50: concentration necessary to inhibit bioactivity of 50 pg/ml of IL-6” value in assay [6] was determined as 0.767 ng/mL.

B12: 9C8 humanized scFv (9C8 Hum scFv v3-1) (scFv)
scFv: DIQMTQSPSSVSASVGDRVTITCQASQSISNELSWYQQKPGKAPKLLIYRTSTLASGVPSRFSGSGSGTDFTLTISSLQPEDFATYYCQQGYNSNDVDNVFGGGTKVEIKGGGGSGGGGSGGGGSGGGGSEVQLVESGGGLVQPGGSLRLSCTVSGIDLSSYDMSWVRQAPGKGLEWVGYIYTDSSTYYANWAKGRFTISRDNSKNTLYLQMNSLRAEDTAVYYCARGSTDYAFDTRLDLWGQGTLVTVSSGPPPPPHHHHHH
notes: the sentence before it names 9C8 v3-1; purified by 6×His tag; also called 9C8 scFv v3-1; 9C8v3-1
In the assay with 3×FLAG-IL-6 [1], B12 returned a Kd of 0.089 nM, a koff of 4.03e-05 s⁻¹ and a kon of 447000 M⁻¹ s⁻¹. For the same molecule, in the assay with human IL-6 [3], the “EC50, inhibition” value came out at 0.319 ng/mL.

The values above are taken from patent US20160194391A1 (AstraZeneca / MedImmune, published 2016).
